Measured values taken from the supplement of paper PMC5998384.

Columns and labels:
HeLa Kyoto [1] = experiment: melting temperature (median over replicates), in situ; higher = more thermally stable
HeLa Kyoto [2] = experiment: thermal stability score vs G1/S (z-score of summed log2 fold changes over temperatures); higher = more thermally stable than in G1/S
HeLa Kyoto [3] = experiment: solubility change mitosis vs G1/S (difference of NP-40 vs SDS log2 ratios) (log2 ratio difference); higher = more soluble in mitosis
HeLa Kyoto [4] = experiment: solubility in G1/S (NP-40 vs SDS abundance) (log2 ratio); higher = more soluble; conditions: cell cycle stage: G1/S
[5] = cell cycle stage: early G1 (4.5 h after nocodazole release)
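Throughout, for melting temperature (median over replicates), in situ: HeLa Kyoto cells synchronized by double thymidine or nocodazole block, proteins quantified by TMT10plex mass spectrometry, three independent biological replicates.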
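Throughout, for solubility change mitosis vs G1/S (difference of NP-40 vs SDS log2 ratios): synchronized HeLa Kyoto cells (double thymidine block for G1/S, nocodazole release for mitosis), protein amounts in NP-40 versus SDS lysates quantified by mass spectrometry, three biological replicates.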
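Throughout, for solubility in G1/S (NP-40 vs SDS abundance): HeLa Kyoto cells arrested at G1/S by double thymidine block, proteins quantified by TMT10plex mass spectrometry in mild NP-40 versus SDS extracts, three biological replicates.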
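Throughout, for thermal stability score vs G1/S (z-score of summed log2 fold changes over temperatures): synchronized HeLa Kyoto cells, proteins quantified by TMT10plex mass spectrometry, three biological replicates, mitosis taken 0.5 h after nocodazole release, G1/S directly after double thymidine block.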

## MNNHVSSKPSTMKLKHTINPILLYFIHFLISLYTILTYIPFYFFSESRQEKSNRIKAKPVNSKPDSAYRSVNSLDGLASVLYPGCDTLDKVFTYAKNKFKNKRLLGTREVLNEEDEVQPNGKIFKKVILGQYNWLSYEDVFVRAFNFGNGLQMLGQKPKTNIAIFCETRAEWMIAAQACFMYNFQLVTLYATLGGPAIVHALNETEVTNIITSKELLQTKLKDIVSLVPRLRHIITVDGKPPTWSEFPKGIIVHTMAAVEALGAKASMENQPHSKPLPSDIAVIMYTSGSTGLPKGVMISHSNIIAGITGMAERIPELGEEDVYIGYLPLAHVLELSAELVCLSHGCRIGYSSPQTLADQSSKIKKGSKGDTSMLKPTLMAAVPEIMDRIYKNVMNKVSEMSSFQRNLFILAYNYKMEQISKGRNTPLCDSFVFRKVRSLLGGNIRLLLCGGAPLSATTQRFMNICFCCPVGQGYGLTESAGAGTISEVWDYNTGRVGAPLVCCEIKLKNWEEGGYFNTDKPHPRGEILIGGQSVTMGYYKNEAKTKADFFEDENGQRWLCTGDIGEFEPDGCLKIIDRKKDLVKLQAGEYVSLGKVEAALKNLPLVDNICAYANSYHSYVIGFVVPNQKELTELARKKGLKGTWEELCNSCEMENEVLKVLSEAAISASLEKFEIPVKIRLSPEPWTPETGLVTDAFKLKRKELKTHYQADIERMYGRK [ACSL3]
HeLa Kyoto [1]; cell cycle stage: G1/S
  melting temperature: 50.7 °C
HeLa Kyoto [1]; cell cycle stage: mitosis
  melting temperature: 51.2 °C
HeLa Kyoto [2]; [5]
  thermal stability score: 1.86
HeLa Kyoto [2]; cell cycle stage: mitosis
  thermal stability score: 3.88
HeLa Kyoto [3]
  solubility change mitosis (log2): -0.129
HeLa Kyoto [4]
  solubility in G1/S (log2): -0.101

## MDRSKENCISGPVKATAPVGGPKRVLVTQQFPCQNPLPVNSGQAQRVLCPSNSSQRIPLQAQKLVSSHKPVQNQKQKQLQATSVPHPVSRPLNNTQKSKQPLPSAPENNPEEELASKQKNEESKKRQWALEDFEIGRPLGKGKFGNVYLAREKQSKFILALKVLFKAQLEKAGVEHQLRREVEIQSHLRHPNILRLYGYFHDATRVYLILEYAPLGTVYRELQKLSKFDEQRTATYITELANALSYCHSKRVIHRDIKPENLLLGSAGELKIADFGWSVHAPSSRRTTLCGTLDYLPPEMIEGRMHDEKVDLWSLGVLCYEFLVGKPPFEANTYQETYKRISRVEFTFPDFVTEGARDLISRLLKHNPSQRPMLREVLEHPWITANSSKPSNCQNKESASKQS [AURKA]
HeLa Kyoto [1]; cell cycle stage: G1/S
  melting temperature: 50 °C
HeLa Kyoto [1]; cell cycle stage: mitosis
  melting temperature: 50.8 °C
HeLa Kyoto [2]; [5]
  thermal stability score: -0.0408
HeLa Kyoto [2]; cell cycle stage: mitosis
  thermal stability score: -0.506
HeLa Kyoto [3]
  solubility change mitosis (log2): -0.0266
HeLa Kyoto [4]
  solubility in G1/S (log2): -0.00432

## METVQLRNPPRRQLKKLDEDSLTKQPEEVFDVLEKLGEGSYGSVYKAIHKETGQIVAIKQVPVESDLQEIIKEISIMQQCDSPHVVKYYGSYFKNTDLWIVMEYCGAGSVSDIIRLRNKTLTEDEIATILQSTLKGLEYLHFMRKIHRDIKAGNILLNTEGHAKLADFGVAGQLTDTMAKRNTVIGTPFWMAPEVIQEIGYNCVADIWSLGITAIEMAEGKPPYADIHPMRAIFMIPTNPPPTFRKPELWSDNFTDFVKQCLVKSPEQRATATQLLQHPFVRSAKGVSILRDLINEAMDVKLKRQESQQREVDQDDEENSEEDEMDSGTMVRAVGDEMGTVRVASTMTDGANTMIEHDDTLPSQLGTMVINAEDEEEEGTMKRRDETMQPAKPSFLEYFEQKEKENQINSFGKSVPGPLKNSSDWKIPQDGDYEFLKSWTVEDLQKRLLALDPMMEQEIEEIRQKYQSKRQPILDAIEAKKRRQQNF [STK4]
HeLa Kyoto [1]; cell cycle stage: G1/S
  melting temperature: 51.8 °C
HeLa Kyoto [1]; cell cycle stage: mitosis
  melting temperature: 51.5 °C
HeLa Kyoto [2]; [5]
  thermal stability score: 0.936
HeLa Kyoto [2]; cell cycle stage: mitosis
  thermal stability score: 0.0765
HeLa Kyoto [3]
  solubility change mitosis (log2): -0.0655
HeLa Kyoto [4]
  solubility in G1/S (log2): 0.283

## MPGSAAKGSELSERIESFVETLKRGGGPRSSEEMARETLGLLRQIITDHRWSNAGELMELIRREGRRMTAAQPSETTVGNMVRRVLKIIREEYGRLHGRSDESDQQESLHKLLTSGGLNEDFSFHYAQLQSNIIEAINELLVELEGTMENIAAQALEHIHSNEVIMTIGFSRTVEAFLKEAARKRKFHVIVAECAPFCQGHEMAVNLSKAGIETTVMTDAAIFAVMSRVNKVIIGTKTILANGALRAVTGTHTLALAAKHHSTPLIVCAPMFKLSPQFPNEEDSFHKFVAPEEVLPFTEGDILEKVSVHCPVFDYVPPELITLFISNIGGNAPSYIYRLMSELYHPDDHVL [EIF2B2]
HeLa Kyoto [1]; cell cycle stage: G1/S
  melting temperature: 51.4 °C
HeLa Kyoto [1]; cell cycle stage: mitosis
  melting temperature: 50.5 °C
HeLa Kyoto [2]; [5]
  thermal stability score: 1.74
HeLa Kyoto [2]; cell cycle stage: mitosis
  thermal stability score: 0.854
HeLa Kyoto [3]
  solubility change mitosis (log2): -0.191
HeLa Kyoto [4]
  solubility in G1/S (log2): 0.101

## MEDGKPVWAPHPTDGFQMGNIVDIGPDSLTIEPLNQKGKTFLALINQVFPAEEDSKKDVEDNCSLMYLNEATLLHNIKVRYSKDRIYTYVANILIAVNPYFDIPKIYSSEAIKSYQGKSLGTRPPHVFAIADKAFRDMKVLKMSQSIIVSGESGAGKTENTKFVLRYLTESYGTGQDIDDRIVEANPLLEAFGNAKTVRNNNSSRFGKFVEIHFNEKSSVVGGFVSHYLLEKSRICVQGKEERNYHIFYRLCAGASEDIREKLHLSSPDNFRYLNRGCTRYFANKETDKQILQNRKSPEYLKAGSMKDPLLDDHGDFIRMCTAMKKIGLDDEEKLDLFRVVAGVLHLGNIDFEEAGSTSGGCNLKNKSAQSLEYCAELLGLDQDDLRVSLTTRVMLTTAGGTKGTVIKVPLKVEQANNARDALAKTVYSHLFDHVVNRVNQCFPFETSSYFIGVLDIAGFEYFEHNSFEQFCINYCNEKLQQFFNERILKEEQELYQKEGLGVNEVHYVDNQDCIDLIEAKLVGILDILDEENRLPQPSDQHFTSAVHQKHKDHFRLTIPRKSKLAVHRNIRDDEGFIIRHFAGAVCYETTQFVEKNNDALHMSLESLICESRDKFIRELFESSTNNNKDTKQKAGKLSFISVGNKFKTQLNLLLDKLRSTGASFIRCIKPNLKMTSHHFEGAQILSQLQCSGMVSVLDLMQGGYPSRASFHELYNMYKKYMPDKLARLDPRLFCKALFKALGLNENDYKFGLTKVFFRPGKFAEFDQIMKSDPDHLAELVKRVNHWLTCSRWKKVQWCSLSVIKLKNKIKYRAEACIKMQKTIRMWLCKRRHKPRIDGLVKVGTLKKRLDKFNEVVSVLKDGKPEMNKQIKNLEISIDTLMAKIKSTMMTQEQIQKEYDALVKSSEELLSALQKKKQQEEEAERLRRIQEEMEKERKRREEDEKRRRKEEEERRMKLEMEAKRKQEEEERKKREDDEKRIQAEVEAQLARQKEEESQQQAVLEQERRDRELALRIAQSEAELISDEAQADLALRRSLDSYPVSKNDGTRPKMTPEQMAKEMSEFLSRGPAVLATKAAAGTKKYDLSKWKYAELRDTINTSCDIELLAACREEFHRRLKVYHAWKSKNKKRNTETEQRAPKSVTDYDFAPFLNNSPQQNPAAQIPARQREIEMNRQQRFFRIPFIRPADQYKDPQSKKKGWWYAHFDGPWIARQMELHPDKPPILLVAGKDDMEMCELNLEETGLTRKRGAEILPRQFEEIWERCGGIQYLQNAIESRQARPTYATAMLQSLLK [MYO6]
HeLa Kyoto [1]; cell cycle stage: G1/S
  melting temperature: 52.1 °C
HeLa Kyoto [1]; cell cycle stage: mitosis
  melting temperature: 51.5 °C
HeLa Kyoto [2]; [5]
  thermal stability score: -0.962
HeLa Kyoto [2]; cell cycle stage: mitosis
  thermal stability score: -1.32
HeLa Kyoto [3]
  solubility change mitosis (log2): -0.164
HeLa Kyoto [4]
  solubility in G1/S (log2): -0.238

## MARAAALLPSRSPPTPLLWPLLLLLLLETGAQDVRVQVLPEVRGQLGGTVELPCHLLPPVPGLYISLVTWQRPDAPANHQNVAAFHPKMGPSFPSPKPGSERLSFVSAKQSTGQDTEAELQDATLALHGLTVEDEGNYTCEFATFPKGSVRGMTWLRVIAKPKNQAEAQKVTFSQDPTTVALCISKEGRPPARISWLSSLDWEAKETQVSGTLAGTVTVTSRFTLVPSGRADGVTVTCKVEHESFEEPALIPVTLSVRYPPEVSISGYDDNWYLGRTDATLSCDVRSNPEPTGYDWSTTSGTFPTSAVAQGSQLVIHAVDSLFNTTFVCTVTNAVGMGRAEQVIFVRETPNTAGAGATGGIIGGIIAAIIATAVAATGILICRQQRKEQTLQGAEEDEDLEGPPSYKPPTPKAKLEAQEMPSQLFTLGASEHSPLKTPYFDAGASCTEQEMPRYHELPTLEERSGPLHPGATSLGSPIPVPPGPPAVEDVSLDLEDEEGEEEEEYLDKINPIYDALSYSSPSDSYQGKGFVMSRAMYV [PVRL2]
HeLa Kyoto [1]; cell cycle stage: G1/S
  melting temperature: 56.9 °C
HeLa Kyoto [1]; cell cycle stage: mitosis
  melting temperature: 55.4 °C
HeLa Kyoto [2]; [5]
  thermal stability score: -2.1
HeLa Kyoto [2]; cell cycle stage: mitosis
  thermal stability score: -3.87
HeLa Kyoto [3]
  solubility change mitosis (log2): 0.0111
HeLa Kyoto [4]
  solubility in G1/S (log2): 0.108
